# Values quoted from earlier work, collected in publication PMC7411019.
# Molecular target: cTnI-binding peptide
# Chain of Cardiac troponin I 114-144 (P19429 114-144): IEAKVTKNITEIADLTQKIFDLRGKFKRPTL
substance,measurement,value
Cardiac troponin I 114-144 (from UniProt P19429),Kd,0.27 nM
